Where a chain is given by its changes, count along the chain named.
T1: Human IL-11 (human, UniProt P20809 22-199)
T1 sequence: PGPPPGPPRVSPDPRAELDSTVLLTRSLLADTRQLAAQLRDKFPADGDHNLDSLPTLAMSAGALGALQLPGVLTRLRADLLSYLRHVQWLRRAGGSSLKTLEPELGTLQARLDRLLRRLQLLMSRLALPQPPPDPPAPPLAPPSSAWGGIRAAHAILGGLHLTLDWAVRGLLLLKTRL

T2: Mouse IL-11 (mouse, UniProt P47873 22-199, limits assumed)
T2 construct: also called murine IL-11; recombinant murine IL-11
T2 sequence (looked up): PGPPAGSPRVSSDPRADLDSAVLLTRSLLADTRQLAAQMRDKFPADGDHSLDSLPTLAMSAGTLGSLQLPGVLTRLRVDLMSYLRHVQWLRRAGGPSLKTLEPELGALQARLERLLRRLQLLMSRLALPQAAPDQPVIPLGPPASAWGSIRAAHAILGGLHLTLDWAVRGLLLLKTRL

B1: YU100-F11 (antibody, V domains shown)
VH: QVQLVESGGGVVQPGRSLRLSCAASGFTFSSYGMHWVRQAPGKGLEWVAVISYDGSNKYYADSVKGRFTISRDNSKNTLYLQMNSLRAEDTAVYYCAKIGATDPLDYWGQGTLVTVSS
VL: QSALTQPASVSGSPGQSITISCTGSSSDVAGYNYVSWYQQHPGKAPKLMIYDVTKRPSGVPDRFSGSKSGNTASLTISGLQAEDEADYYCCSYAGSYTWVFGGGTQLTVLG
notes: light chain-shuffled human anti-IL-11 clone
B2: YU100-G10 (antibody)
chain: QVQLVQSGGGVVQPGRSLRLSCAASGFTFSSYGMHWVRQAPGKGLEWVAVISYDGSNKYYADSVKGRFTISRDNSKNTLYLQMNSLRAEDTAVYYCAKIGATDPLDYWGQGTLVTVSSGSASAPKLEEGEFSEARVQSALTQPASVSGSLGQSITMSCTGTRRDVGGYDFVSWYQQYPGKAPKLIIYDVSNRPSGVSNRFTGSKSGNTASLTISGLQAEDEADYYCCSYAGTYTWVFGGGTKVTVL
B3: YU112-G01 (antibody)
chain: QVQLVESGGGVVQPGRSLRLSCAASGFTFSSYGMHWVRQAPGKGLEWVAVISYDGSNKYYADSVKGRFTISRDNSKNTLYLQMNSLRAEDTAVYYCAKLSGPNGVDYWGQGTLVTVSSGSASAPKLEEGEFSEARVQSALTQPRSVSGSPGQSVTISCTGTISDVGGYNYVSWYQQHPGKAPKLMIYDVTKRPSGVPDRFSGSKSGNTASLTISGLQAEDEAGYYCSSYAGSYTWVFGGGTELTVL
B4: YU100-E08 (antibody)
chain: QVQLVQSGGGVVQPGRSLRLSCAASGFTFSSYAMHWVRQAPGKGLEWVAVISYDGSNKYYADSVKGRFTISRDNSKNTLYLQMNSLRAEDTAVYYCARIMGYDYGDYDVVDYWGQGTLVTVSSGSASAPKLEEGEFSEARVQSALTQPRSVSGSPGQSVTISCTGTSSDVGGYNYVSWYQQHPGKAPKLMIYDVSRRPSGVPDRFSGSKSGNTASLTISGLQAEDEADYYCCSYAGNYTWMFGGGTKLTVL
B5: YU100-E11 (antibody)
chain: B4 chain with Q6E, A33G, R196K, N237S, M241V
B6: YU100-E09 (antibody)
chain: B4 chain with Q6E, G172D, N174D, M190I, S195T, R196K, V201I, N237S, M241V, G244R
B7: YU100-E07 (antibody)
chain: QVQLQESGGGVVQPGRSLRLSCAASGFTFSSYGMHWVRQAPGKGLEWVAVISYDGSNRYYADSVKGRFAISRDNSKNTLYLQMNSLRAEDTAVYYCAKIGATDPLDYWGQGTLVTVSSGSASAPKLEEGEFSEARVQSALTQPRSVSGSPGQSVTISCTGTSSDVGGYDYVSWYQQHPGKAPELMIYDVTKRPSGVADRFSGSKSGNTASLTISGLQAEDEADYYCCSYAGRYTWVFGGGTKLTVL
B8: YU100-F07 (antibody)
chain: QVQLVESGGGVVQPGRSLRLSCAASGFTFSSYAMHWVRQAPGKGLEWVAVISYDGSNKYYADSVKGRFTISRDNSKNTLYLQMNSLRAEDTAVYYCARIMGYDYGDYDVVDYWGQGTLVTVSSGSASAPKLEEGEFSEARVQSALTQPRSVSVSPGQSVTISCTGTSSDVGGYEYVSWYQQHPGKAPKLMIYDVTKRPSGVPDRFSGSKSGNTASLTISGLQGEDAADYYCCSYAGSYTWVFGGGTTVTVL
B9: YU100-E10 (antibody)
chain: QVQLVQSGGGVVQPGRSLRLSCAASGFTFSSYGMHWVRQAPGKGLEWVAVISYDGSNKYYADSVKGRFTISRDNSKNTLYLQMNSLRAEDTAVYYCAKIGATDPLDYWGQGTLVTVSSGSASAPKLEEGEFSEARVQSALTQPRSVSGSPGQSVTISCTGTSSDVGGYNYVSWYQQHPGKAPKLMIFDVSQRPSGVPDRFSASKSGNTASLTISGLQAEDEADYYCCSYAGSYTWVFGGGTKLTVL
B10: YU100-D07 (antibody)
chain: QVQLVESGGGVVQPGRSLRLSCAASGFTFSSYAMHWVRQAPGKGLEWVAVISYDGSNKYYADSVKGRLTISRDNSKNTLYLQMNSLRAEDTAVYYCARIMGYDYGDYDVVDYWGQGTLVTVSSGSASAPKLEEGEFSEARVQSALTQPRSVSGSPGQSVTISCTGTSGDVGTYDYVSWYQQHPGKAPKLMIYDVSKRPSGVPDRFSGSKSGNTASLTISGLQAEDEADYYCNSYAGSYTWVFGGGTKLTVLGQPKTAPSVTLFPPSS
B11: YU100-B09 (antibody, V domains shown)
VH: B1 VH with E6Q
B12: YU100-G11 (antibody)
chain: B4 chain with Q6E, A33G, M190T, I191L, S195G, R196K, N237G, M241V, L248V, L251V
B13: YU112-C09 (antibody)
chain: QVQLVQSGGGVVQPGRSLRLSCAASGFTFGSYGMHWVRQAPGKGLEWVAVISYDGSNKYYADSVKGRFTISRDNSKNTLYLQMNSLRAEDTAVYYCAKGSYYFDYWGQGTLVTVSSGSASAPKLEEGEFSEARVETTLTQSPATLSVSPGERATLSCRASQSFSSSYLAWYQQKPGQAPRLLIYGASRRAPGIPDRFSGSGSGTDFSLTISRLEPEDFAVYYCQQSSTSPTWAFGRGTKVEVK
B14: YU100-F06 (antibody)
chain: QVQLVESGGGVVQPGRSLRLSCAASGFTFSSYGMHWVRQAPGKGLEWVAVISYDGSNKYYADSVKGRFTISRDNSKNTLYLQMNSLRAEDTAVYYCARIMGYDYGDYDVVDYWGQGTLVTVSSGSASAPKLEEGEFSEARVQSALTQPRSVSGSPGQSVTISCTGSSSDVGGYNFVSWYRQHPGEAPKLVIFDVNKRPSGVPDRFSGSKSGNTASLTISGLQTEDEADYFCCSYAGGYTWVFGGGTKVTVV
B15: YU100-F05 (antibody)
chain: QVQLQQSGGGVVQPGRSLRLSCAASGFTFSSYGMHWVRQAPGKGLEWVAVISYDGSNKYYADSVKGRFTISRDNSKNTLYLQMNSLRAEDTAVYYCAKIGATDPLDYWGQGTLVTVSSGSASAPKLEEGEFSEARVQAVLTQPASVSGSPGQSITISCTGTSSDIGGYNYVSWYQQHPGTAPKLMIYDVSSRPSGVSNRFSGSKSGNTASLTISGLQAEDEADYYCCSYAGSYTWVFGGGTKMTVL

Target: T1, Human IL-11
Test: cell-based or functional assay

MMP2 production, Experiment 1 (human atrial fibroblasts + TGFB1) | MMP2 production, Experiment 2 (human atrial fibroblasts + TGFB1) | Binder
44.5 ng/mL | 37.6 ng/mL | B1
54 ng/mL | 45.4 ng/mL | B2
47.6 ng/mL | 43.8 ng/mL | B3
48.2 ng/mL | 59.7 ng/mL | B4
49.1 ng/mL | 41.9 ng/mL | B5
51.7 ng/mL | 44.4 ng/mL | B6
52.1 ng/mL | 46.5 ng/mL | B7
53.1 ng/mL | 46.6 ng/mL | B8
56.1 ng/mL | 47 ng/mL | B9

Target: T1, Human IL-11
Test: ELISA on coated recombinant human IL-11 (100 ng/well), scFv-Fc
Description: The light chain shuffled anti-IL-11 antibodies were analysed to determine the EC50 for binding to human IL-11 by ELISA according to standard methods. Briefly, wells of microtiter plates were coated with recombinant human IL-11 (100 ng/well), scFv-Fc comprising the VH and VL domains of the clones were added in a dilution series and antibody binding was detected using a polyclonal antibody detection system.

EC50 | Binder
0.027 µg/mL | B1
0.034 µg/mL | B2
0.032 µg/mL | B4
0.028 µg/mL | B5
0.019 µg/mL | B6
0.023 µg/mL | B7
0.041 µg/mL | B8
0.033 µg/mL | B9

Target: T1, Human IL-11
Test: ELISA
Description: (§1) The soluble scFv were produced by recombinant expression in E. coli, and analysed for their ability to bind to human IL-11 and murine IL-11 by ELISA. Briefly, the respective antigen was coated to wells of an ELISA plate, the cell culture supernatant containing the respective scFv was added at a 1:2 dilution, and binding was detected.

hIL11 - average signal | Binder
0.246 | B10
0.319 | B1
0.21 | B11
0.262 | B2
0.528 | B3
0.214 | B4
0.268 | B5
0.224 | B6
0.498 | B12
0.593 | B13
0.193 | B7
0.16 | B14
0.304 | B15
0.172 | B8
0.338 | B9

Target: T2, Mouse IL-11
Test: ELISA
Description: as §1

mIL11 - average signal | Binder
0.322 | B10
0.395 | B1
0.293 | B11
0.404 | B2
0.794 | B3
0.251 | B4
0.435 | B5
0.335 | B6
0.507 | B12
0.898 | B13
0.247 | B7
0.481 | B14
0.542 | B15
0.148 | B8
0.297 | B9
